Test results published in patent US10813913B2, “Small molecules that mimic or antagonize actions of granulocyte colony-stimulating-factor (G-CSF)” (UNIVERSITY OF SOUTH FLORIDA, priority 2016, dated 2020).
Entries after “also recorded” stand apart in the source; their conditions may differ.

What was measured:
[1] = tested on: mouse model of TBI; details: earlier G-CSF work stated as background to Example 6; cited from earlier work
[2] = tested on: PKCδVIII and Bcl2 expressed in THP-1 monocytic cells; test: Western blot of PKCδVIII and Bcl2 in THP-1 monocytic cells; format: cell-based, human; details: THP-1, G-CSF 200 ng/mL (10.6 nM), 24 h
Method: (§1) In addition, a set of flasks were co-incubated with the combination of G-CSF and 3 concentrations of test drug. Whole cell lysates ([…]) were separated on 10% polyacrylamide gel electrophoresis-SDS (PAGE-SDS). Proteins were electrophoretically transferred to nitrocellulose membranes, blocked with 5% nonfat milk prepared on Tris buffered saline containing 0.1% Tween 20, washed and incubated with a polyclonal antibody against either Bcl2 (Cell Signaling, Danvers, Mass.) or PKCδVIII-specific polyclonal antibody (Jiang, K., et al. Biochemistry 2008, 47, 787-797). The house keeping gene GAPDH was used as an internal standard. Following incubation with anti-rabbit IgG-HRP, enhanced chemiluminesence (Pierce™, Thermo Scientific, Walthahm, Mass.) was used for detection and the gels were analyzed using UN-SCAN-IT™ software (Silk Scientific, Inc., Orem, Utah).
(§2) Statistical analysis. Densitometric results from Western blots were analyzed with two-tailed t-tests when only two groups were compared. In other analyses where 3 groups were compared, one-way ANOVA followed by t-tests with Dunnett's corrections for multiple comparisons was utilized. All data was presented as mean±SEM. All statistical analysis of data was done via PRISM4 or PRISM5 statistical analysis software (GraphPad Prism, La Jolla, Calif.). Neurohistologic analyses are performed using ANOVA. All comparisons were considered significant at level of P<0.05.

[3] = tested on: PKCδVIII and Bcl2 expressed in SH-SY5Y neuronal cells; test: Western blot of PKCδVIII and Bcl2 in SH-SY5Y neuronal cells; format: cell-based, human; details: SH-SY5Y, G-CSF 100 ng/mL (5.3 nM), 24 h
Method: as §1, with “THP-1 cells or SH-SY5Y cells 3×10^6 cells in 5 mL media in a 25 cm^2 flask were treated with 100 ng/mL G-CSF or three different concentrations of the test drug for 24 h. In addition,” for “In addition,”
as §2

B1: G-CSF: Granulocyte-colony stimulating factor, a glycoprotein cytokine; natural ligand of G-CSF-R; SEQ ID NO: 1 (protein, listed as Homo sapiens)
chain: MAGPATQSPMKLMALQLLLWHSALWTVQEATPLGPASSLPQSFLLKCLEQVRKIQGDGAALQEKLVSECATYKLCHPEELVLLGHSLGIPWAPLSSCPSQALQLAGCLSQLHSGLFLYQGLLQALEGISPELGPTLDTLQLDVADFATTIWQQMEELGMAPALQPTQGAMPAFASAFQRRAGGVLVASHLQSFLEVSYRVLRHLAQP
recovery in the radial arm water maze (RAWM) [1]: significantly promoted recovery | Bcl2 expression [2]: increased the expression of PKCδVIII and Bcl2 | PKCδVIII expression [2]: increased the expression of PKCδVIII and Bcl2 | Bcl2 expression [3]: much greater at equivalent concentrations; also recorded: increased | PKCδVIII expression [3]: much greater at equivalent concentrations; also recorded: increased
